Assay results: paper PMC4066763, “Programmable DNA-binding proteins from Burkholderia provide a fresh perspective on the TALE-like repeat domain”

Experiments:
Bat3 = target: T1, Bat3 (Burkholderia rhizoxinica HKI 0454, UniProt E5AW43 1-311); assay: EMSA; 100 nM protein, 10 nM DNA, poly dI.dC; EMSA: 15 mM Tris-Cl, 75 mM KCl, 2.5 mM DTT, 0.063% NP-40, 62.5 ng/ul dI.dC, 0.125 mg/ml BSA, 6.25% glycerol, 6.25 mM MgCl2, 0.125 mM EDTA, room temp, gel at 4 C; MST: 20 mM Tris pH 7.4, 150 mM NaCl, 10 mM MgCl2, 0.05% Tween, room temp, 100 nM labelled Bat1; conditions: protein: recombinant; tags: N-terminal His; label: 5' Cy5 forward strand
T1 sequence: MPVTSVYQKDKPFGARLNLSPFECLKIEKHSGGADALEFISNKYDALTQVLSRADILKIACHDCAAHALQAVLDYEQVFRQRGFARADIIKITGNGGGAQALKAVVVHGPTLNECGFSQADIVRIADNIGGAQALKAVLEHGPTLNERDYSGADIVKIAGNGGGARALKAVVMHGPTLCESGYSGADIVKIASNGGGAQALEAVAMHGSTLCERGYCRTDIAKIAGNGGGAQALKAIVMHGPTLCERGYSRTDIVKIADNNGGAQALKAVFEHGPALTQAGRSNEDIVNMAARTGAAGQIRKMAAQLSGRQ

Bat2 = target: T2, Bat2 (Burkholderia rhizoxinica HKI 0454, UniProt E5AW45 1-997); assay: as above; conditions: protein: recombinant; tags: N-terminal His; label: 5' Cy5 forward strand
T2 sequence: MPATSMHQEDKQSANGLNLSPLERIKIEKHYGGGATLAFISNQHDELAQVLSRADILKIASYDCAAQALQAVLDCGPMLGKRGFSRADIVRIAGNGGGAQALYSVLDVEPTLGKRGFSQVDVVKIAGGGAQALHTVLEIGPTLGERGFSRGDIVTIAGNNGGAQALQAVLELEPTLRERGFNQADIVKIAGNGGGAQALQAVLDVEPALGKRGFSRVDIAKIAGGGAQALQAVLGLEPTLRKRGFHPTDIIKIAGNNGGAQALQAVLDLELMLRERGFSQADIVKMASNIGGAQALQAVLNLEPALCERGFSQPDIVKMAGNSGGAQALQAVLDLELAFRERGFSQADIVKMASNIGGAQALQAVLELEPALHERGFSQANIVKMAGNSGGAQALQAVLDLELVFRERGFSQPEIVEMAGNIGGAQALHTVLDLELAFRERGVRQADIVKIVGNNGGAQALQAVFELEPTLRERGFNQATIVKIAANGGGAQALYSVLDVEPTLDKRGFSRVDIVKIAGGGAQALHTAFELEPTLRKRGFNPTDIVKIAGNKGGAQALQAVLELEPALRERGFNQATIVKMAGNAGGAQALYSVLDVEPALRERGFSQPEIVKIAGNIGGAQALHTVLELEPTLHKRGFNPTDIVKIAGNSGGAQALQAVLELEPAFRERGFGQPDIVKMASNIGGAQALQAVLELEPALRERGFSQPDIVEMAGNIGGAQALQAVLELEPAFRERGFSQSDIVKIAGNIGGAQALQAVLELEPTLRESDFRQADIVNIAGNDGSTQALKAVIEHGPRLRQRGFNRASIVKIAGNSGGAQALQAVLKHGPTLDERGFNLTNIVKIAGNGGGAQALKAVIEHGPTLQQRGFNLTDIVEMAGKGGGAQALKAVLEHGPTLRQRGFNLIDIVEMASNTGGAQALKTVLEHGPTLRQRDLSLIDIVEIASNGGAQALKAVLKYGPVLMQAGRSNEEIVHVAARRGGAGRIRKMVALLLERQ

Bat1 (BurrH) [1] = target: T3, Bat1 (BurrH) (Burkholderia rhizoxinica HKI 0454, UniProt E5AV36 1-771); assay: MST; 10 mM MgCl2; EMSA: 15 mM Tris-Cl, 75 mM KCl, 2.5 mM DTT, 0.063% NP-40, 62.5 ng/ul dI.dC, 0.125 mg/ml BSA, 6.25% glycerol, 6.25 mM MgCl2, 0.125 mM EDTA, room temp, gel at 4 C; MST: 20 mM Tris pH 7.4, 150 mM NaCl, 10 mM MgCl2, 0.05% Tween, room temp, 100 nM labelled Bat1; conditions: protein: recombinant; tags: N-terminal His; label: none (stated unlabelled)
T3 sequence: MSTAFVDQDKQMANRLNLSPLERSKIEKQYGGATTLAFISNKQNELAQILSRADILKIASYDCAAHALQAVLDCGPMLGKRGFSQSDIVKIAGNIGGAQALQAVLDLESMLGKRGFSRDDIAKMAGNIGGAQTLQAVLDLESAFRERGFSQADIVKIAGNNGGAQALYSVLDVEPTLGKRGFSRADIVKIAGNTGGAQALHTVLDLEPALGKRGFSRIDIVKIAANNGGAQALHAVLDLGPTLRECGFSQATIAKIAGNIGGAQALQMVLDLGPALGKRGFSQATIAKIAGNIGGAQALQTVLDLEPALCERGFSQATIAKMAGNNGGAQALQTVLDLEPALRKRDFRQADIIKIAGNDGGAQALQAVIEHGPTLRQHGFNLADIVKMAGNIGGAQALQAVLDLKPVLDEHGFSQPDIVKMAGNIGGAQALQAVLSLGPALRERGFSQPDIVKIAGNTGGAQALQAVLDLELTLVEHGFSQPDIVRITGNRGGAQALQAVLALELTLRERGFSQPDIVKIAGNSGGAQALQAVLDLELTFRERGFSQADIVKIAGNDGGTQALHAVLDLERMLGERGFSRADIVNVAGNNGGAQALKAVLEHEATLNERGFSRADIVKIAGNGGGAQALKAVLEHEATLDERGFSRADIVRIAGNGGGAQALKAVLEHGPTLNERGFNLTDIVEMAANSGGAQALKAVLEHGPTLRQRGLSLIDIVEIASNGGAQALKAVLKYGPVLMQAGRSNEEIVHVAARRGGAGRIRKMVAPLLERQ

Bat1 (BurrH) [2] = target: T3, Bat1 (BurrH); assay: EMSA; 100 nM protein, 10 nM DNA, poly dI.dC; EMSA: 15 mM Tris-Cl, 75 mM KCl, 2.5 mM DTT, 0.063% NP-40, 62.5 ng/ul dI.dC, 0.125 mg/ml BSA, 6.25% glycerol, 6.25 mM MgCl2, 0.125 mM EDTA, room temp, gel at 4 C; MST: 20 mM Tris pH 7.4, 150 mM NaCl, 10 mM MgCl2, 0.05% Tween, room temp, 100 nM labelled Bat1; conditions: protein: recombinant; tags: N-terminal His; label: 5' Cy5 forward strand

B1: BEBat1 (T0), EMSA (dsDNA)
DNA 1: TAGACTAAGAGAAGCAAAGACGTTATATGC
DNA 2: GCATATAACGTCTTTGCTTCTCTTAGTCTA
B1: no binding (Bat3); no binding (Bat2).

B2: BEBat1 T-0, MST (dsDNA)
DNA 1: TAGACTAAGAGAAGCAAAGACGTTATATGC
DNA 2: GCATATAACGTCTTTGCTTCTCTTAGTCTA
For B2, the Kd (Bat1 (BurrH) [1]) was 132 nM.

B3: BEBat3, EMSA (dsDNA)
DNA 1: TAGACATAGATTATTATATTTGTAACAAGTAAATGC
DNA 2: GCATTTACTTGTTACAAATATAATAATCTATGTCTA
B3: no binding (Bat3); no binding (Bat1 (BurrH) [2]); no binding (Bat2).

B4: BEBat1 G-0, MST (dsDNA)
DNA 1: TAGACGAAGAGAAGCAAAGACGTTATATGC
DNA 2: GCATATAACGTCTTTGCTTCTCTTCGTCTA
B4: binds (Bat1 (BurrH) [1]).

B5: BEBat1 A-0, MST (dsDNA)
DNA 1: TAGACAAAGAGAAGCAAAGACGTTATATGC
DNA 2: GCATATAACGTCTTTGCTTCTCTTTGTCTA
B5: binds (Bat1 (BurrH) [1]).

B6: BEBat1 C-0, MST (dsDNA)
DNA 1: TAGACCAAGAGAAGCAAAGACGTTATATGC
DNA 2: GCATATAACGTCTTTGCTTCTCTTGGTCTA
B6: binds (Bat1 (BurrH) [1]).

B7: BEBat2, EMSA (dsDNA)
DNA 1: TAGACTTTGTTGAAAAGTTGTAAAAACATTATATGC
DNA 2: GCATATAATGTTTTTACAACTTTTCAACAAAGTCTA
B7: no binding (Bat3); no binding (Bat1 (BurrH) [2]); binds (Bat2).
